Here are results for 4 molecules from article PMC6774274, “Engineering a Seven Enzyme Biotransformation using Mathematical Modelling and Characterized Enzyme Parts” (Chemcatchem, 2019).

Data set [1] concerns the target T1, mpCAR (Mycolicibacterium phlei, UniProt A0A5N5VEC4).
T1 construct: gene car; N-terminal 6xHis tag, pNIC28-Bsa4, E. coli BL21(DE3); co-expressed with Bacillus subtilis phosphopantetheine transferase; gene from genomic DNA
T1 sequence (A0A5N5VEC4 1-1162): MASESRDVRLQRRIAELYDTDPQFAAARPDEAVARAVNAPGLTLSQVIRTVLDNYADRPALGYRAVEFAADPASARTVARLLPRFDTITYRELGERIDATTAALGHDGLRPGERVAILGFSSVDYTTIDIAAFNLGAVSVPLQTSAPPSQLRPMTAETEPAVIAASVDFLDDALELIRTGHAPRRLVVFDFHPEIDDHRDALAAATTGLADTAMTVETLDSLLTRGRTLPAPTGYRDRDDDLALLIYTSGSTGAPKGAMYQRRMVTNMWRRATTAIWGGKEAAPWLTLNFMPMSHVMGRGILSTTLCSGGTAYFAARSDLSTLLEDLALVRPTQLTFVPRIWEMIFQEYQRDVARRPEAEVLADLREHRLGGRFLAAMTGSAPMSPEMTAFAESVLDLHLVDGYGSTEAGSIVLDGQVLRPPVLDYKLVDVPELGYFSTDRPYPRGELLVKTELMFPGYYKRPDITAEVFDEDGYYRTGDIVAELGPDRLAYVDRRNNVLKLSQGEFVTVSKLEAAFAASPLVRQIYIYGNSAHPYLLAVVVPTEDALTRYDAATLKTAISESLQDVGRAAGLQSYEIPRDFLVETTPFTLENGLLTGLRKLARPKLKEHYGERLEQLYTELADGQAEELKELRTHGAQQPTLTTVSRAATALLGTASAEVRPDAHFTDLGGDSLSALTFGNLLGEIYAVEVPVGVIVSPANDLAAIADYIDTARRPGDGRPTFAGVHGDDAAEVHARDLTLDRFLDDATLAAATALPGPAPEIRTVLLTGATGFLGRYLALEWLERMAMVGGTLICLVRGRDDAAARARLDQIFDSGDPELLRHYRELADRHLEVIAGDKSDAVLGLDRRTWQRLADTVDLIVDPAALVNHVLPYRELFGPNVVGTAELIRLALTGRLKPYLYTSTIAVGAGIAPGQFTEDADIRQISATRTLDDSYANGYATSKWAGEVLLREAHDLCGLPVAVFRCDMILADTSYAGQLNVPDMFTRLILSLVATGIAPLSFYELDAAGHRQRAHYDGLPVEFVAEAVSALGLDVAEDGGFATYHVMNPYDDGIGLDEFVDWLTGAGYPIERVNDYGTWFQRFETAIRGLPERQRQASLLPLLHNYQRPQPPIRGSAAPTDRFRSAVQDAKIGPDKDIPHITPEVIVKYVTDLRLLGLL
Nature of the data set: inhibition of CAR reaction. The format is biochemical. The note with it: read-out: K I-ADP. From the text: inhibition of CAR reaction on mpCAR

Data set [2] has as its target T1, mpCAR. Kind of data set: NADPH oxidation at […] nm, two-substrate fit. Type of data set: biochemical. The note with it: kinetic constant for ATP in the ordered rate equation, not an inhibition constant; otherwise as row above.
Substrate in data set [3]: Nc1ncnc2c1ncn2[C@@H]1O[C@H](COP(=O)(O)O)[C@@H](O)[C@H]1O
Nature of the data set: ADP-Glo kinase assay, luminescence. Type of data set: biochemical, Thermodesulfobium narugense. Conditions: polyphosphate co-substrate (12.5 mM PO3 units), 20 or 40 mM MgCl2, 100 mM Tris-HCl pH 7.5, 15 min. From the text: ADP-Glo kinase assay, luminescence on tnPAP

Substrate in data set [4]: Nc1ncnc2c1ncn2[C@@H]1O[C@H](COP(=O)(O)OP(=O)(O)OP(=O)(O)O)[C@@H](O)[C@H]1O
Nature of the data set: purified protein. Conditions: 0.25 mM NADPH, 10 mM MgCl2, varied 4-toluic acid, 100 mM Tris-HCl pH 7.5, 30 °C. The format is biochemical, Mycolicibacterium phlei.

Substrate in data set [5]: NC(=O)C1=CN([C@@H]2O[C@H](COP(=O)(O)OP(=O)(O)OC[C@H]3O[C@@H](n4cnc5c(N)ncnc54)[C@H](OP(=O)(O)O)[C@@H]3O)[C@@H](O)[C@H]2O)C=CC1
Kind of data set: purified protein. The format is biochemical, Mycolicibacterium phlei. The note with it: 10 mM MgCl2, 1 mM ATP, 10 mM 4-toluic acid, 100 mM Tris-HCl pH 7.5, 30 °C, varied: cofactor.

Substrate in data set [6]: Cc1ccc(C(=O)O)cc1
Nature of the data set: purified protein. The note with it: 0.25 mM NADPH, 10 mM MgCl2, varied ATP, 100 mM Tris-HCl pH 7.5, 30 °C.

Broadly, the Km is the substrate concentration at which the rate is half of its maximum. The kcat is the number of substrate molecules converted per active site and unit of time at saturation.

As to `Nc1ncnc2c1ncn2[C@@H]1O[C@H](COP(=O)(O)OP(=O)(O)O)[C@@H](O)[C@H]1O` [ADP], the Ki in data set [1] worked out at 11 mM.
In the case of `Nc1ncnc2c1ncn2[C@@H]1O[C@H](COP(=O)(O)OP(=O)(O)OP(=O)(O)O)[C@@H](O)[C@H]1O` [ATP], the “K I-ATP” value in data set [2] turned out to be 0.04 ± 0.034 mM.

B1: tnPAP (Thermodesulfobium narugense DSM 14796) (protein)
chain: MLEKVDLNKIMDREDYKKEFDNLSIELGALQREARDLKLPIIIVFDGFEAAGKGTLINKLMLPLDPRGYDVIKRFECPSETDNRPYFYKFWKTIPKRGDISIVNESWYKALLSDRVLKKTSPEIVEYLFDEILSFEGQLVADGYLIVKFFLYISEEEQKDRLKKLKKNKDESWRVTDDVLKLHKKYKKFLDAAETVFEKTDTAFAPWTIIEATDKRYATIKIFKTLIEAIKFKIKAIKEKEELPSFENFYPVNELSSLSKIDLNKSLTYEEYIEKLHPLQREIHDLQYRLWKERVPVIVAFEGWDAAGKGGSIKRLTEAMDPRGYTVIPIGAPNEYELAHHYLWRFWQNVPEKGNIAIFDRTWYGRVLVERVEKLCKDFDWQRAYGEIKQMEKQFTNFGIVLLKFWLHIDKKTQLERFEEREKNPFKHWKITEDDWRNRSKWDDYLPAVEEMLIRTSTAEAPWNIIEANDKYFARIKVLETFVNKIKEKLN
notes: N-terminal 6xHis tag, codon-optimised, pNIC28-Bsa4, E. coli
Take B1: in data set [3], the Km stood at 280 ± 240 µM and the kcat was found to be 4.17 ± 2.08 s⁻¹.

B2: mpCAR (Mycolicibacterium phlei DSM 43239 = CCUG 21000) (protein)
chain: MASESRDVRLQRRIAELYDTDPQFAAARPDEAVARAVNAPGLTLSQVIRTVLDNYADRPALGYRAVEFAADPASARTVARLLPRFDTITYRELGERIDATTAALGHDGLRPGERVAILGFSSVDYTTIDIAAFNLGAVSVPLQTSAPPSQLRPMTAETEPAVIAASVDFLDDALELIRTGHAPRRLVVFDFHPEIDDHRDALAAATTGLADTAMTVETLDSLLTRGRTLPAPTGYRDRDDDLALLIYTSGSTGAPKGAMYQRRMVTNMWRRATTAIWGGKEAAPWLTLNFMPMSHVMGRGILSTTLCSGGTAYFAARSDLSTLLEDLALVRPTQLTFVPRIWEMIFQEYQRDVARRPEAEVLADLREHRLGGRFLAAMTGSAPMSPEMTAFAESVLDLHLVDGYGSTEAGSIVLDGQVLRPPVLDYKLVDVPELGYFSTDRPYPRGELLVKTELMFPGYYKRPDITAEVFDEDGYYRTGDIVAELGPDRLAYVDRRNNVLKLSQGEFVTVSKLEAAFAASPLVRQIYIYGNSAHPYLLAVVVPTEDALTRYDAATLKTAISESLQDVGRAAGLQSYEIPRDFLVETTPFTLENGLLTGLRKLARPKLKEHYGERLEQLYTELADGQAEELKELRTHGAQQPTLTTVSRAATALLGTASAEVRPDAHFTDLGGDSLSALTFGNLLGEIYAVEVPVGVIVSPANDLAAIADYIDTARRPGDGRPTFAGVHGDDAAEVHARDLTLDRFLDDATLAAATALPGPAPEIRTVLLTGATGFLGRYLALEWLERMAMVGGTLICLVRGRDDAAARARLDQIFDSGDPELLRHYRELADRHLEVIAGDKSDAVLGLDRRTWQRLADTVDLIVDPAALVNHVLPYRELFGPNVVGTAELIRLALTGRLKPYLYTSTIAVGAGIAPGQFTEDADIRQISATRTLDDSYANGYATSKWAGEVLLREAHDLCGLPVAVFRCDMILADTSYAGQLNVPDMFTRLILSLVATGIAPLSFYELDAAGHRQRAHYDGLPVEFVAEAVSALGLDVAEDGGFATYHVMNPYDDGIGLDEFVDWLTGAGYPIERVNDYGTWFQRFETAIRGLPERQRQASLLPLLHNYQRPQPPIRGSAAPTDRFRSAVQDAKIGPDKDIPHITPEVIVKYVTDLRLLGLL
notes: N-terminal 6xHis tag, pNIC28-Bsa4, E. coli BL21(DE3); co-expressed with Bacillus subtilis phosphopantetheine transferase; gene from genomic DNA
B2: the Km in data set [4] is 100 ± 28 µM; in data set [5], 30 ± 8 µM; in data set [6] it was 1,500±320 μM. Also, the kcat in data set [4], in data set [5] and in data set [6] was 3.33 ± 0.333 s⁻¹ throughout.
